Experimental data taken from publication PMC11487180, “PAK6 rescues pathogenic LRRK2-mediated ciliogenesis and centrosomal cohesion defects in a mutation-specific manner” (Cell Death & Disease, 2024).

Molecular target: T1, AK7 (human, UniProt Q96M32 1-723)
T1 construct: AK7, human, recombinant protein on the HuProt array; source: bought: HuProt Human Proteome Microarray v4.0, Cambridge Protein Arrays (recombinant protein spotted on the array)
Assay: peptide or protein array; HuProt Human Proteome Microarray v4.0 (GST proteins spotted) incubated with recombinant PAK6 in 2% BSA, PBS, 0.05% Tween20 for 2 h at RT; detected with anti-PAK6 and fluorophore conjugated secondary antibody; hits by Z score > 2.5
Conditions: both partners purified

T1 sequence (Q96M32 whole entry): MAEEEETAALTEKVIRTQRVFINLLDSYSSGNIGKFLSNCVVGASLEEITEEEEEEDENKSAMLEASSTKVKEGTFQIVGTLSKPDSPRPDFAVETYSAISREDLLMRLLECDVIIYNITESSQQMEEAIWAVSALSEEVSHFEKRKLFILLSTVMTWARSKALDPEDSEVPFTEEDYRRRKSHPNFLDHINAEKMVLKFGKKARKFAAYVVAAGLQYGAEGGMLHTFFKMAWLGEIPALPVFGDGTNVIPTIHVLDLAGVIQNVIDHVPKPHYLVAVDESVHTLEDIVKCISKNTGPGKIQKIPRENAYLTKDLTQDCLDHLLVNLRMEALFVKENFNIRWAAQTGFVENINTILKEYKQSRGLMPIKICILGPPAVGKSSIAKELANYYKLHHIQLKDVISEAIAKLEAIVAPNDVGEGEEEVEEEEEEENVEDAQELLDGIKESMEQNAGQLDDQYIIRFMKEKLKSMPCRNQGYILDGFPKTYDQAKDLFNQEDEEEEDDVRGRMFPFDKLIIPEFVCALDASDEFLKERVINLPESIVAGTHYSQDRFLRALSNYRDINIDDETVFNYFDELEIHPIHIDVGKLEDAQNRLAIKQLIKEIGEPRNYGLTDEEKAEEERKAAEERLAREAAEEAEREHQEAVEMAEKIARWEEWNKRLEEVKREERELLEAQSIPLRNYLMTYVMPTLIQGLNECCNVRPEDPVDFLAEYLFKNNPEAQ

B1: Recombinant full-length human PAK6 (ThermoFisher, #PR5307A) (enzyme, UniProt Q9NQU5 1-681, looked up)
chain: MFRKKKKKRPEISAPQNFQHRVHTSFDPKEGKFVGLPPQWQNILDTLRRPKPVVDPSRITRVQLQPMKTVVRGSAMPVDGYISGLLNDIQKLSVISSNTLRGRSPTSRRRAQSLGLLGDEHWATDPDMYLQSPQSERTDPHGLYLSCNGGTPAGHKQMPWPEPQSPRVLPNGLAAKAQSLGPAEFQGASQRCLQLGACLQSSPPGASPPTGTNRHGMKAAKHGSEEARPQSCLVGSATGRPGGEGSPSPKTRESSLKRRLFRSMFLSTAATAPPSSSKPGPPPQSKPNSSFRPPQKDNPPSLVAKAQSLPSDQPVGTFSPLTTSDTSSPQKSLRTAPATGQLPGRSSPAGSPRTWHAQISTSNLYLPQDPTVAKGALAGEDTGVVTHEQFKAALRMVVDQGDPRLLLDSYVKIGEGSTGIVCLAREKHSGRQVAVKMMDLRKQQRRELLFNEVVIMRDYQHFNVVEMYKSYLVGEELWVLMEFLQGGALTDIVSQVRLNEEQIATVCEAVLQALAYLHAQGVIHRDIKSDSILLTLDGRVKLSDFGFCAQISKDVPKRKSLVGTPYWMAPEVISRSLYATEVDIWSLGIMVIEMVDGEPPYFSDSPVQAMKRLRDSPPPKLKNSHKVSPVLRDFLERMLVRDPQERATAQELLDHPFLLQTGLPECLVPLIQLYRKQTSTC
notes: source: bought: ThermoFisher, #PR5307A
binding result: binds
